Target: Jak2 (UniProt O60674)
Test: phosphorylation enrichment, bacterial display (enrichment ratio); higher = better substrate or ligand; peptides without Tyr show the background
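Further: 11-residue human phosphosite peptides and single-mutation variants displayed on the E. coli surface, counted by deep sequencing, each peptide's frequency after selection divided by its frequency in the unselected input library; frequency after pTyr selection over input frequency; kinase dosed for 20-30% of maximal phosphorylation in three min.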

Jak2, sequence (O60674 whole entry, looked up): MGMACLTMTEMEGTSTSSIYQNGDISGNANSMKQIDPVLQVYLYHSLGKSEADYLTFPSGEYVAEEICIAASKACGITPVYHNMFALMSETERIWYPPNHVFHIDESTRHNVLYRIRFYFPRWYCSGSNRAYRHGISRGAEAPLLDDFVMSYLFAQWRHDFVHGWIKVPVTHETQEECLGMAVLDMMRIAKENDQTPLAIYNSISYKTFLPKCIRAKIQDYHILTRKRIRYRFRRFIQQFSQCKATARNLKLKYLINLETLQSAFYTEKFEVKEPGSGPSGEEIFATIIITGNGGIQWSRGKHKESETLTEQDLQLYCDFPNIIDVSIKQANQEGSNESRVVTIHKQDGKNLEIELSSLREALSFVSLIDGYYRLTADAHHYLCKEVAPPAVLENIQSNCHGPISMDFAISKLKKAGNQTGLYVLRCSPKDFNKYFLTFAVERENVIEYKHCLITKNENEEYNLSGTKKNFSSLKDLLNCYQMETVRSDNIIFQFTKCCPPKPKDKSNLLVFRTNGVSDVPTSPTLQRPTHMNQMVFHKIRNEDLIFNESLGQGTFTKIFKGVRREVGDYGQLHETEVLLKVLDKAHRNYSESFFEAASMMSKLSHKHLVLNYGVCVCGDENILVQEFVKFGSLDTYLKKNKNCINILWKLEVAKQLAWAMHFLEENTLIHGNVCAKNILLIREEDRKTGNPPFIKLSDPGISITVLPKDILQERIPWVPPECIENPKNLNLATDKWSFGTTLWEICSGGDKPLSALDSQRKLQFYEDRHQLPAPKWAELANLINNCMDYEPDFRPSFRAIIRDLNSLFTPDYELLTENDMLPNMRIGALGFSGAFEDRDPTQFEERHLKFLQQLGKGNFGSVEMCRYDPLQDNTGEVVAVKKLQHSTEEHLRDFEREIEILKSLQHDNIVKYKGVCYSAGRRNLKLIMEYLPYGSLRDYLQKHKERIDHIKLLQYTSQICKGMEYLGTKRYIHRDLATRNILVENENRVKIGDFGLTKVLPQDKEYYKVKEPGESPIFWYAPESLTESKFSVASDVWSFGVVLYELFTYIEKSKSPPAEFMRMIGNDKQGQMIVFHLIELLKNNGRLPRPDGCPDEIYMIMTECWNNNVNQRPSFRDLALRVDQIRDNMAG

| Sequence | phosphorylation enrichment |
| --- | --- |
| SHNKFYMLVAR [MFSD8_Y134_YF] | 1.1 |
| ADPQEYIPLPA [JAKtide_2014] | 0.865 |
| KDFTIYNPNLL [VANGL1_Y290] | 0.815 |
| EYLHKYKGFKI [SYNE1_Y6953_Q6951H] | 1.01 |
| TFEFRYLEDQD [CNOT3_Y746_R750Q_YF] | 1.92 |
| DELDKYSEVLK [TPM1_Y60_A63V] | 1.37 |
| TQRPFYKGGGG [TYROBP_Y112_YF] | 0.451 |
| TMETKYDNISR [SETDB2_Y477_V473M] | 0.808 |
| IAINKYEVSLI [MYO7A_Y2136_G2137E] | 0.851 |
| NGPDVYVLPLT [AATK_Y93] | 0.8 |
| PVQAAYQQVVA [HBB_Y131_K133Q] | 0.736 |
| VIKDKYPKAHY [APTX_Y209_R213H] | 0.579 |
| SVTCTYYPALN [TP53_Y126_S127Y] | 1.36 |
| KKDGPYDVVVL [PARK7_Y67_E64D] | 0.608 |
| AVLALYNSTRD [TGFB1_Y81] | 0.78 |
| NGTVSYAIVAG [CDH23_Y1672_T1671S] | 0.703 |
| FRKNIYNVKST [SYNE2_Y575_YF] | 0.384 |

| Sequence | phosphorylation enrichment |
| --- | --- |
| MAPQMYESHLP [NCAPD2_Y6_F8S] | 0.524 |
| EFISECCGEII [EZH2_Y641_Y641C] | 1.07 |
| VMLENYSNLLS [ZFP69_Y109_V113L] | 0.699 |
| VGEGPYLISDL [ABCC12_Y7] | 1.05 |
| VFDHIYTTQSD [RET_Y928_L923V] | 0.671 |
| SGDITYGQFAQ [PLCG1_Y210] | 0.796 |
| KRAIGYYSATS [FAM120A_Y327] | 0.439 |
| ALVDTYCRHNF [HLA-DRB1_Y107_A103L_YF] | 0.847 |
| TLCLCYKETEE [ATP8B1_Y658_I661T] | 1.53 |
| SSNLFYRCLTA [CNGA3_Y169_W171C_YF] | 1.12 |
| CEHRGHLFLAI [TEK_Y897_Y897H_YF] | 0.888 |
| TTICKYITPME [GUCY2C_Y839_S840I] | 0.728 |
| TAALWYIYSHT [ENG_Y612] | 0.984 |
| FLAVGYHKPYI [IDS_Y225_H229Y] | 1.02 |
| GQKTLYSFFSP [UNG_Y8] | 0.908 |
| QDEHGYISRCF [HSPB1_Y133] | 0.965 |

Target: EPHB2 (UniProt P29323)
Sequence (P29323 whole entry, looked up): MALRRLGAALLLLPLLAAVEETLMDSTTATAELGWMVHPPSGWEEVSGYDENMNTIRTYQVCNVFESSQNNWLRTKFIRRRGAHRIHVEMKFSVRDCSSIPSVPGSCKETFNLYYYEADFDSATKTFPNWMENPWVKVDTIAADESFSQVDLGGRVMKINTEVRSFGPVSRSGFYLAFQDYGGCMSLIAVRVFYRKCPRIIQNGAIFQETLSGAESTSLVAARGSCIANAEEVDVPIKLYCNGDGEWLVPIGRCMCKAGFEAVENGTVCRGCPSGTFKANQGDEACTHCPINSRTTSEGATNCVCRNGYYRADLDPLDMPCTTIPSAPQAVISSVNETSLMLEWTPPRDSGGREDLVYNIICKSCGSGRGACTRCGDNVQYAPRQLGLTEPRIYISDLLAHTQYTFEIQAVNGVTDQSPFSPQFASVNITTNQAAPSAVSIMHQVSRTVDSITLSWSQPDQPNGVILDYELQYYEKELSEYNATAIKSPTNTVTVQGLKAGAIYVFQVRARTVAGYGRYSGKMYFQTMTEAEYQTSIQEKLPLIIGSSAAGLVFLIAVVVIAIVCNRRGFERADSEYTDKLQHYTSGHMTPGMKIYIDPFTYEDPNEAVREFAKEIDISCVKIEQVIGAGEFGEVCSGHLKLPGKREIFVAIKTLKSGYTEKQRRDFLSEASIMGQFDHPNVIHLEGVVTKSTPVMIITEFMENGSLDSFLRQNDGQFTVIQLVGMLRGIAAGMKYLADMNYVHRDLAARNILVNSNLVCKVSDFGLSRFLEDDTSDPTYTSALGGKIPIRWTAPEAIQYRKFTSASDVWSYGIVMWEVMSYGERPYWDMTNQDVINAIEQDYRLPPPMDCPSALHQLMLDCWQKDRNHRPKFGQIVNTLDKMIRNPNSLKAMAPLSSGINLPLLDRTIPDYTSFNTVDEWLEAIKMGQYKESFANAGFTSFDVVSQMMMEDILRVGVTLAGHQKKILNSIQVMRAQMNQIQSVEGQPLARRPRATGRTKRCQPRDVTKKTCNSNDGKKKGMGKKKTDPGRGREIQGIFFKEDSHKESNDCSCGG
Test: as above

| Sequence | phosphorylation enrichment |
| --- | --- |
| SHNKFYMLVAR [MFSD8_Y134_YF] | 0.607 |
| ADPQEYIPLPA [JAKtide_2014] | 0.49 |
| KDFTIYNPNLL [VANGL1_Y290] | 0.42 |
| EYLHKYKGFKI [SYNE1_Y6953_Q6951H] | 0.509 |
| TFEFRYLEDQD [CNOT3_Y746_R750Q_YF] | 0.44 |
| DELDKYSEVLK [TPM1_Y60_A63V] | 0.603 |
| TQRPFYKGGGG [TYROBP_Y112_YF] | 0.31 |
| TMETKYDNISR [SETDB2_Y477_V473M] | 0.424 |
| IAINKYEVSLI [MYO7A_Y2136_G2137E] | 0.562 |
| NGPDVYVLPLT [AATK_Y93] | 0.511 |
| PVQAAYQQVVA [HBB_Y131_K133Q] | 0.822 |
| VIKDKYPKAHY [APTX_Y209_R213H] | 0.359 |
| SVTCTYYPALN [TP53_Y126_S127Y] | 0.617 |
| KKDGPYDVVVL [PARK7_Y67_E64D] | 0.53 |
| AVLALYNSTRD [TGFB1_Y81] | 0.53 |
| NGTVSYAIVAG [CDH23_Y1672_T1671S] | 0.575 |
| FRKNIYNVKST [SYNE2_Y575_YF] | 0.378 |

| Sequence | phosphorylation enrichment |
| --- | --- |
| MAPQMYESHLP [NCAPD2_Y6_F8S] | 0.702 |
| EFISECCGEII [EZH2_Y641_Y641C] | 0.695 |
| VMLENYSNLLS [ZFP69_Y109_V113L] | 0.864 |
| VGEGPYLISDL [ABCC12_Y7] | 0.5 |
| VFDHIYTTQSD [RET_Y928_L923V] | 0.467 |
| SGDITYGQFAQ [PLCG1_Y210] | 0.4 |
| KRAIGYYSATS [FAM120A_Y327] | 0.387 |
| ALVDTYCRHNF [HLA-DRB1_Y107_A103L_YF] | 0.613 |
| TLCLCYKETEE [ATP8B1_Y658_I661T] | 0.749 |
| SSNLFYRCLTA [CNGA3_Y169_W171C_YF] | 0.632 |
| CEHRGHLFLAI [TEK_Y897_Y897H_YF] | 0.544 |
| TTICKYITPME [GUCY2C_Y839_S840I] | 0.466 |
| TAALWYIYSHT [ENG_Y612] | 0.832 |
| FLAVGYHKPYI [IDS_Y225_H229Y] | 0.441 |
| GQKTLYSFFSP [UNG_Y8] | 2.12 |
| QDEHGYISRCF [HSPB1_Y133] | 0.923 |

Test system: AncSZ
Test: as above

| Sequence | phosphorylation enrichment |
| --- | --- |
| SHNKFYMLVAR [MFSD8_Y134_YF] | 1.15 |
| ADPQEYIPLPA [JAKtide_2014] | 0.904 |
| KDFTIYNPNLL [VANGL1_Y290] | 0.722 |
| EYLHKYKGFKI [SYNE1_Y6953_Q6951H] | 0.903 |
| TFEFRYLEDQD [CNOT3_Y746_R750Q_YF] | 1.89 |
| DELDKYSEVLK [TPM1_Y60_A63V] | 1.49 |
| TQRPFYKGGGG [TYROBP_Y112_YF] | 0.48 |
| TMETKYDNISR [SETDB2_Y477_V473M] | 0.652 |
| IAINKYEVSLI [MYO7A_Y2136_G2137E] | 0.89 |
| NGPDVYVLPLT [AATK_Y93] | 1.33 |
| PVQAAYQQVVA [HBB_Y131_K133Q] | 0.554 |
| VIKDKYPKAHY [APTX_Y209_R213H] | 0.449 |
| SVTCTYYPALN [TP53_Y126_S127Y] | 1.52 |
| KKDGPYDVVVL [PARK7_Y67_E64D] | 0.906 |
| AVLALYNSTRD [TGFB1_Y81] | 0.755 |
| NGTVSYAIVAG [CDH23_Y1672_T1671S] | 0.778 |
| FRKNIYNVKST [SYNE2_Y575_YF] | 0.469 |

| Sequence | phosphorylation enrichment |
| --- | --- |
| MAPQMYESHLP [NCAPD2_Y6_F8S] | 0.501 |
| EFISECCGEII [EZH2_Y641_Y641C] | 1.27 |
| VMLENYSNLLS [ZFP69_Y109_V113L] | 0.66 |
| VGEGPYLISDL [ABCC12_Y7] | 0.952 |
| VFDHIYTTQSD [RET_Y928_L923V] | 0.978 |
| SGDITYGQFAQ [PLCG1_Y210] | 0.596 |
| KRAIGYYSATS [FAM120A_Y327] | 0.477 |
| ALVDTYCRHNF [HLA-DRB1_Y107_A103L_YF] | 0.782 |
| TLCLCYKETEE [ATP8B1_Y658_I661T] | 1.42 |
| SSNLFYRCLTA [CNGA3_Y169_W171C_YF] | 1.03 |
| CEHRGHLFLAI [TEK_Y897_Y897H_YF] | 1.02 |
| TTICKYITPME [GUCY2C_Y839_S840I] | 0.99 |
| TAALWYIYSHT [ENG_Y612] | 1.15 |
| FLAVGYHKPYI [IDS_Y225_H229Y] | 0.654 |
| GQKTLYSFFSP [UNG_Y8] | 0.984 |
| QDEHGYISRCF [HSPB1_Y133] | 1.23 |

Target: MERTK (UniProt Q12866)
Sequence (Q12866 whole entry, looked up): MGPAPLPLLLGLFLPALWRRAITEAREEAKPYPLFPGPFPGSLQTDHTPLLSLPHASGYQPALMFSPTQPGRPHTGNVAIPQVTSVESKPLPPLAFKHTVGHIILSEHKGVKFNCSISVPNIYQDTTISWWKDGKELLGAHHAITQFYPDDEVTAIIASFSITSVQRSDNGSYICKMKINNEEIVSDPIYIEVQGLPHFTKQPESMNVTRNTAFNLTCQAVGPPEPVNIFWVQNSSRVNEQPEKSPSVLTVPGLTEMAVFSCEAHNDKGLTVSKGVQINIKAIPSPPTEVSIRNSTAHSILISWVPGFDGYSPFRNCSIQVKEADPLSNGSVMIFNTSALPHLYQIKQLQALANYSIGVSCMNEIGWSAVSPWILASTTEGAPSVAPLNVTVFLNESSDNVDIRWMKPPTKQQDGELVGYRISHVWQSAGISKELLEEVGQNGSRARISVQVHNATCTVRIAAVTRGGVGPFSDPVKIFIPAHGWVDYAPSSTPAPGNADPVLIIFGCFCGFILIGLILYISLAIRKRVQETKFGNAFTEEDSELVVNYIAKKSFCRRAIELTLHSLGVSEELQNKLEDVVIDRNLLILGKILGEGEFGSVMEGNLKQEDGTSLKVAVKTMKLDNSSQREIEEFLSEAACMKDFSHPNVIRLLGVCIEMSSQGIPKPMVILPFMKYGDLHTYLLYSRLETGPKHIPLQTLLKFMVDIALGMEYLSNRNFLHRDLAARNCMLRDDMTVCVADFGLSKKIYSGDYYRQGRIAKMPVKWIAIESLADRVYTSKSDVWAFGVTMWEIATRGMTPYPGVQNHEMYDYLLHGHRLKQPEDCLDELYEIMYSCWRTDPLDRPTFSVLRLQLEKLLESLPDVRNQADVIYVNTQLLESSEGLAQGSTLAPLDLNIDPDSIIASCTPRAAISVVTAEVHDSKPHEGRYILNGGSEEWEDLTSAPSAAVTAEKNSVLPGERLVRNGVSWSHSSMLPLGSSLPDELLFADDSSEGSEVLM
Test: as above

| Sequence | phosphorylation enrichment |
| --- | --- |
| SHNKFYMLVAR [MFSD8_Y134_YF] | 0.479 |
| ADPQEYIPLPA [JAKtide_2014] | 0.425 |
| KDFTIYNPNLL [VANGL1_Y290] | 0.478 |
| EYLHKYKGFKI [SYNE1_Y6953_Q6951H] | 0.453 |
| TFEFRYLEDQD [CNOT3_Y746_R750Q_YF] | 0.643 |
| DELDKYSEVLK [TPM1_Y60_A63V] | 0.48 |
| TQRPFYKGGGG [TYROBP_Y112_YF] | 0.331 |
| TMETKYDNISR [SETDB2_Y477_V473M] | 0.469 |
| IAINKYEVSLI [MYO7A_Y2136_G2137E] | 0.371 |
| NGPDVYVLPLT [AATK_Y93] | 1.69 |
| PVQAAYQQVVA [HBB_Y131_K133Q] | 0.415 |
| VIKDKYPKAHY [APTX_Y209_R213H] | 0.285 |
| SVTCTYYPALN [TP53_Y126_S127Y] | 0.412 |
| KKDGPYDVVVL [PARK7_Y67_E64D] | 0.589 |
| AVLALYNSTRD [TGFB1_Y81] | 0.639 |
| NGTVSYAIVAG [CDH23_Y1672_T1671S] | 0.792 |
| FRKNIYNVKST [SYNE2_Y575_YF] | 0.335 |

| Sequence | phosphorylation enrichment |
| --- | --- |
| MAPQMYESHLP [NCAPD2_Y6_F8S] | 0.466 |
| EFISECCGEII [EZH2_Y641_Y641C] | 0.503 |
| VMLENYSNLLS [ZFP69_Y109_V113L] | 0.388 |
| VGEGPYLISDL [ABCC12_Y7] | 0.468 |
| VFDHIYTTQSD [RET_Y928_L923V] | 0.579 |
| SGDITYGQFAQ [PLCG1_Y210] | 0.362 |
| KRAIGYYSATS [FAM120A_Y327] | 0.55 |
| ALVDTYCRHNF [HLA-DRB1_Y107_A103L_YF] | 0.549 |
| TLCLCYKETEE [ATP8B1_Y658_I661T] | 0.483 |
| SSNLFYRCLTA [CNGA3_Y169_W171C_YF] | 0.42 |
| CEHRGHLFLAI [TEK_Y897_Y897H_YF] | 0.482 |
| TTICKYITPME [GUCY2C_Y839_S840I] | 0.421 |
| TAALWYIYSHT [ENG_Y612] | 0.878 |
| FLAVGYHKPYI [IDS_Y225_H229Y] | 0.441 |
| GQKTLYSFFSP [UNG_Y8] | 10.3 |
| QDEHGYISRCF [HSPB1_Y133] | 0.396 |

From the supplement of paper PMC10065799, “High-throughput profiling of sequence recognition by tyrosine kinases and SH2 domains using bacterial peptide display” (eLife, 2023)
